Source: US20230126400A1 (Alector, published 2023)

T1: BSA-conjugated human MS4A4A ECL2 peptide (amino acid residues 159-179) (human, conjugated to BSA (site not stated))
T1 construct: also called MS4A4A-ECL2 BSA conjugated peptide; BSA-MS4A4A-ELC2 peptide
T1 peptide: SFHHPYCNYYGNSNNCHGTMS

T2: human MS4A6A ECL2 peptide (amino acid residues 138-185) (human)
T2 peptide: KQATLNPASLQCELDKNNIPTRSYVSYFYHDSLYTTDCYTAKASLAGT

T3: human MS4A6A ECL1 peptide (amino acid residues 68-85) (human)
T3 peptide: SASFSPNFTQVTSTLLNS

T4: human MS4A4A ECL1 peptide (amino acid residues 86-98) (human)
T4 construct: synthetic peptide
T4 peptide: CMASNTYGSNPIS

T5: human MS4A4A ECL2 peptide (amino acid residues 159-179), free (human)
T5 construct: synthetic peptide; also called huMS4A4A-ELC2 free-peptide
T5 peptide: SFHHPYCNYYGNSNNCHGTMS


Tests used:
cynomolgus (cyno) MS4A4A [1] = target: T6, cynomolgus (cyno) MS4A4A (cynomolgus); test: functional affinity, FACS titration on stably transfected 300.19 cells
T6 construct: also called cy4A; Cyno 4A
Experimental: (§1) Determination of functional affinity/KD was carried out as follows. A constant number of 300.19 cells stably transfected with constructs expressing MS4A4A were blocked against non-specific binding, and then incubated with anti-MS4A4A antibodies at various concentrations predetermined to span from saturation-binding to no antibodies present for three hours on ice so the reaction is allowed to achieve near equilibrium. The cells were then washed and incubated with fluorophore-conjugated secondary antibodies, washed again, and signal determined by FACS Cantos (Becton Dickinson, Franklin Lake, N.J.). To determine functional/KD, the four-parameter dose response curve with variable slope was fitted onto the data by Prism (Graphpad, San Diego, Calif.), based on the multiple independent binding site model described by Drake and Klakamp, supra.

human MS4A4A [2] = target: T7, human MS4A4A (human, UniProt Q96JQ5 1-239); test: as above
Experimental: as §1

[3] = target: T1, BSA-conjugated human MS4A4A ECL2 …; test: ELISA, hybridoma supernatant
Experimental: (§2) Briefly, 96-well polystyrene plates were coated with 1-10 μg/ml of synthetic free or BSA-conjugated peptides in coating buffer (0.05M carbonate buffer, pH9.6, Millipore Sigma C3041) overnight at 4° C. Coated plates were then blocked with ELISA diluent (PBS+0.5% BSA+0.05% Tween20) for 1-hour, washed 3×300 μL in PBST (PBS+0.05% Tween20, Thermo Cat#28352), and then the antibodies were added to the plate (50 μl/ml). After 30 mins incubation (room temperature, with shaking), the plates were washed 3×300 μL in PBST. […] After a final set of washes (3×300 μL in PBST), 50 μL of TMB substrate (BioFx TMBW-1000-01) was added and the reaction was then quenched after 5-10 mins with 50 μL of stop solution (BioFx BSTP-1000-01). The quenched reaction wells were detected for absorbance at 650 nm with a BioTek Synergy Microplate Reader using GENS 2.04 software.

[4] = target: T2, human MS4A6A ECL2 peptide (amino acid …); test: array SPR
Experimental: (§3) Binding kinetic characterization of the anti-MS4A4A antibodies to MS4A4A ECL1 and ECL2 and to MS4A6A ECL1 and ECL2 peptides was performed by Carterra (South San Francisco, Calif.) using a proprietary array Surface Plasmon Resonance (SPR) instrument (MX-96) as follows. Antibodies were captured onto a CMD500D chip (Xantec # SPMX CMD500D) using the Continous Flow Microspotter (CFM). First, the chip was activated with 100 mM MES pH 5.5, 100 μL EDC (133 mM final), 100 μL of S-NHS (33.3 mM final), for 7 minutes. […] Anti-MS4A4A hydridoma supernatant or purified anti-MS4A4A antibodies were diluted in HBS-EP+ buffer (Teknova Cat # H8022) and then printed as duplicates with a 20 minute and a 5-minute print from the same sample solution.
(§4) These were then injected on the chip for five minutes, followed by a seven-minute dissociation period at 8 uL per second in a non-regenerative kinetic series. Duplicate measurements for each anti-MS4A4A antibody were taken to ensure reproducibility. Association rates (Kon) and dissociation rates (Koff) were calculated using a single one-to-one Langmuir binding model. The equilibrium dissociation constant (KD) was calculated as the ration of Koff/Kon.

[5] = target: T3, human MS4A6A ECL1 peptide (amino acid …); test: array SPR
Experimental: as §3, §4

[6] = target: T4, human MS4A4A ECL1 peptide (amino acid …); test: peptide ELISA
Experimental: as §2, with “[…]” for “1-10 μg/ml”, “Cat#C3041)” for “C3041)”, “μl/well).” for “μl/ml).”, “Cat#TMBW-1000-01)” for “TMBW-1000-01)”, “Cat#BSTP-1000-01).” for “BSTP-1000-01).”, “650nm” for “650 nm”

cynomolgus (cyno) MS4A4A [7] = target: T6, cynomolgus (cyno) MS4A4A; test: FACS, HEK293, supernatant
Experimental: (§5) Positive clones identified above were expanded and then rescreened for specificity against HEK293 cells overexpressing human MS4A4A or cyno MS4A4A and parental HEK293 cells. These experiments were performed using supernatants from hybridoma clones which had undergone further expansion after initial selection. Briefly, previously prepared, cryopreserved transiently-transfected cells were labeled with LIVE/DEAD Fixable Aqua Dead Cell Stain Kit (ThermoFisher Scientific L34957) on ice for 30 minutes. After a wash with PBS, 2×10⁵ cells were aliquoted per well in 96-well U-bottom plates and incubated with 50 μl of culture supernatant on ice for 30 minutes. […] Following this secondary incubation, the cells were again washed twice with ice-cold FACS buffer and resuspended in a final volume of 200 μl of FACS buffer. Analysis was performed on a FACS Canto system (BD Biosciences), with sort gates drawn to exclude dead (Aqua-positive) cells. Positive clones (fold change of 1.8 or greater) were carried forward for further testing.

human MS4A4A [8] = target: T7, human MS4A4A; test: FACS, HEK293, supernatant
Experimental: as §5

[9] = target: T4, human MS4A4A ECL1 peptide (amino acid …); test: ELISA, hybridoma supernatant
Experimental: as §2

cynomolgus (cyno) MS4A4A [10] = target: T6, cynomolgus (cyno) MS4A4A; test: flow cytometry (anti-mouse IgG Fc-APC), hybridoma supernatant on 300.19 cells transfected with cyno MS4A4A
Experimental: Flow cytometry was performed as follows. Briefly, transiently-transfected cells were labeled with LIVE/DEAD Fixable Aqua Dead Cell Stain Kit (ThermoFisher Scientific Cat#L34957) on ice for 30 minutes. […] 2×10⁵ cells were aliquoted per well in 96-well U-bottom plates and incubated with 50 μl of culture supernatant on ice for 30 minutes. […] Following this secondary incubation, the cells were again washed twice with ice-cold FACS buffer and resuspended in a final volume of 200 μl of FACS buffer. Analysis was performed on a FACS Canto system (BD Biosciences), with gates drawn to exclude dead (Aqua-positive) cells.

[11] = target: T1, BSA-conjugated human MS4A4A ECL2 …; test: ELISA, supernatant
Experimental: as §2

[12] = target: T5, human MS4A4A ECL2 peptide (amino acid …); test: peptide ELISA
Experimental: as §2, with “[…]” for “1-10 μg/ml”, “Cat#C3041)” for “C3041)”, “μl/well).” for “μl/ml).”, “Cat#TMBW-1000-01)” for “TMBW-1000-01)”, “Cat#BSTP-1000-01).” for “BSTP-1000-01).”, “650nm” for “650 nm”

Row | Binder | Kd (cynomolgus (cyno) MS4A4A [1]) [nM] | Kd (human MS4A4A [2]) [nM] | binding result [3] | binding result [4] | binding result [5] | binding result [6] | Cyno 4A:parental cell ratio (cynomolgus (cyno) MS4A4A [7]) [ratio] | Human 4A:parental cell ratio (human MS4A4A [8]) [ratio] | binding result [9] | other results
1 | anti-MS4A4A antibody 4A-18 (murine) (antibody, IgG1, V domains shown, murine hybridoma antibody, msIgG1; also called 4A-18 (msIgG1)) VH: QVQLQQPGTELVKPGASVKLSCKASGYTFTSYWIHWVKQRPGQGLEWIGNINPTNGGTNYNERFKSKATLTVDKSSSTAYMQLSSLTSEDSAVYYCARAYYYGSSLFAYWGQGTLVTVSA VL: DIVMTQSQKFMSTTVGDRVSITCKASQNVGTAVAWSQQKPGQSPKLLIYSASYRHTGVPDRFTGSGSGTDFTLTITNMQSEDLADYFCQQYSTYPWTFGGGTKLEIK | – | 1.6 | no binding | no binding (tested: 2000 nM) | no binding (tested: 2000 nM) | no binding | – | – | – | –
2 | anti-MS4A4A antibody 4A-12 (antibody, V domains shown, murine hybridoma antibody) VH: QVQLQQSGAELAQPGASVKMSCKASGYTFSSYWMYWVKQGPGQGLEWIGYINPGTGYTEYNQKFKDKATLTADKSSSTAYMQLSSLTSEDSAVYYCARFYYGSPYYYAMDYWGQGTSVTVSS VL: DIVMTQSQKFMSTSVGDRVTFTCKASQSVDTDVAWYQQKPGQSPKLLIYSASNRYTGVPDRFTGSGSGTDFTLTISNVQSEDLADYFCHQYNSYPLTFGAGTKLELK | – | – | no binding | no binding (tested: 2000 nM) | no binding (tested: 2000 nM) | – | 3.96 | 9.58 | no binding | –
3 | anti-MS4A4A antibody 4A-17 (antibody, V domains shown, murine hybridoma antibody) VH: QVQLQQSAAELMKPGASVKLSCKATGYTFTGYWIEWLKQRPGHGLEWIGEILPGIGNTKYSEKFKGKATFTADTSSNTAYMQLSSLTTEDSAIYYCARSLLRAMDYWGQGTSVTVSS VL: QIVLTQSPAIMSASPGEKVTMTCSAISSISYMHWYQLKPGTSPKRWIYDTSKLASGVPARFSGSGSGTSYSLTISSMEAEDAATYYCHQRSSYPYTFGGGTKLEIK | – | – | no binding | no binding (tested: 2000 nM) | no binding (tested: 2000 nM) | – | 1.67 | 4.83 | no binding | –
4 | anti-MS4A4A antibody 4A-5 (antibody, V domains shown, murine hybridoma antibody) VH: EVKVEESGGGLVQPGGSMKLSCAASGFTFSDAWMDWVRQSPEKGLEWVAEIRSKTNSHATYYAESVKGRFTISRDDSKSSVYLQMNSLRAEDTGIYYCTVDYYGIFWGQGTLVTVSS VL: not shown | – | – | no binding | no binding (tested: 2000 nM) | no binding (tested: 2000 nM) | – | 8.49 | 27.3 | no binding | –
5 | anti-MS4A4A antibody 4A-14 (antibody, V domains shown, murine hybridoma antibody) VH: EVKLEESGGGLVQPGGSMKLSCAASGFTFSDAWLDWVRQSPEKGLEWVAEIRSKANDHATYYAESVKGRFTISRDDSKSRFYLQMNSLRAEDTGIYYCSVDYYGFFWGQGTLVTVSA VL: not shown | – | – | – | no binding (tested: 2000 nM) | no binding (tested: 2000 nM) | – | 0.647 | 4.2 | no binding | binding result (cynomolgus (cyno) MS4A4A [10]): no binding; binding result [11]: binds

Further lines, with some results ahead:

Row | Kd (cynomolgus (cyno) MS4A4A [1]) [nM] | Kd (human MS4A4A [2]) [nM] | binding result [3] | binding result [4] | binding result [5] | binding result [6] | Cyno 4A:parental cell ratio (cynomolgus (cyno) MS4A4A [7]) [ratio] | Human 4A:parental cell ratio (human MS4A4A [8]) [ratio] | binding result [9] | Binder | other results
6 | 3.1 | 0.84 | – | – | – | – | – | – | – | anti-MS4A4A antibody 4A-18, huIgG1 chimera (antibody, V domains shown, also called 4A-18 (hIgG1)) VH: QVQLQQPGTELVKPGASVKLSCKASGYTFTSYWIHWVKQRPGQGLEWIGNINPTNGGTNYNERFKSKATLTVDKSSSTAYMQLSSLTSEDSAVYYCARAYYYGSSLFAYWGQGTLVTVSA VL: DIVMTQSQKFMSTTVGDRVSITCKASQNVGTAVAWSQQKPGQSPKLLIYSASYRHTGVPDRFTGSGSGTDFTLTITNMQSEDLADYFCQQYSTYPWTFGGGTKLEIK | –
7 | – | – | – | – | – | no binding | – | – | – | anti-MS4A4A antibody 4A-202 (murine) (antibody, V domains shown, murine hybridoma antibody) VH: QVQLQQSGAELARPGASVKLSCKASGYTFTNYWMQWVKQRPGQGLEWIGATHPGHGDTRYTQKFKGKATLSADKSSSTAYMQLSNLASEDSAVYYCAREEVYYGFRSYWYFDVWGAGTTVTVSS VL: not shown | binding result [12]: binds
8 | 1.8 | 3.5 | – | – | – | – | – | – | – | anti-MS4A4A antibody 4A-202, huIgG1 chimera (antibody, V domains shown) VH: QVQLQQSGAELARPGASVKLSCKASGYTFTNYWMQWVKQRPGQGLEWIGATHPGHGDTRYTQKFKGKATLSADKSSSTAYMQLSNLASEDSAVYYCAREEVYYGFRSYWYFDVWGAGTTVTVSS VL: not shown | –
9 | – | – | – | – | – | no binding | – | – | – | anti-MS4A4A antibody 4A-25 (antibody, V domains shown, purified murine antibody) VH: QVTLKESGPGILQPSQTLSLTCSFSGFSLRTSDMGVGWVRQPSGEGLEWLADIWWDDNKYYNPSLKSRLTISKDTSSNQVFLKITSVDTADTATYYCARRANYGNLFDYWGQGTAVTVSS VL: DIVMTQSLKFMSTSVGDRVSITCKASQNVRSAVAWYQQKPGQSPKVLIYWASNRHTGVPDRFTGSGSGTDFTLTISNVQSEDLADYFCLQHWNYLTFGSGTKLEIK | binding result [12]: binds
10 | 7.6 | – | – | – | – | – | – | – | – | anti-MS4A4A antibody 4A-21, huIgG1 chimera (antibody, V domains shown, also called 4A-21 (hIgG1)) VH: QIQLVQSGPELKKPGETVKISCKASGYIFTSYGLSWVKQTPGKGLKWMGWINTYSGVPTYANDFKGRFAFSLETSASTTYLRINNLKNDDTATYFCARSLVDYWGQGTPLTVSS VL: not shown | –
